“Also recorded” adds a separate entry of the source.
Assays:
HSC = assay: LPS-stimulated hepatic stellate cells in vitro; type: cell-based, mouse; conditions: LPS-stimulated Dectin-1−/− HSC, 24 h; FIG. 14D
Method: Murine hepatic NPC were collected as previously (Connolly et al., 2009, The Journal of clinical investigation 119, 3213-3225). Briefly, the portal vein was cannulated and infused with 1% Collagenase IV (Sigma). The liver was then removed, minced, and filtered to obtain single cell suspensions. Hepatocytes were excluded with serial low speed (400 RPM) centrifugation followed by high speed (2000 RPM) centrifugation to isolate the NPC, which were then further enriched over a 40% Optiprep (Sigma) gradient. […] In vitro proliferation was measured using the XTT cell proliferation kit (Roche). PKC activity was measured using a PKC Kinase Activity Assay Kit (Abcam). […]
For Western blotting, total protein was isolated from 75 mg liver tissue by homogenization in RIPA buffer with Complete Protease Inhibitor cocktail (Roche). […] The presence of the co-immunoprecipitated proteins were determined by western blotting.

liver regeneration = assay: 70% partial hepatectomy, liver regeneration; type: in vivo, mouse; conditions: TCRδ−/− mice, 36 h, FIG. 29C
Text: C57BL/6, TCRδ^−/−, and C57BL/6-Trdc^tm1Mal mice were purchased from Jackson (Bar Harbor, Me.). For selected experiments, CD45.1 mice and C57BL/6 controls were purchased from Taconic (Germantown, N.Y.). Dectin-1^−/− mice were a gift from Gordon Brown (University of Aberdeen). Bone marrow chimeric animals were created by irradiating mice (9 Gy) followed by i.v. bone marrow transfer (10^7 cells) as described by us (Ochi et al., The Journal of clinical investigation 2012; 122:4118-29). The 70% partial hepatectomy procedure entailed ligation and removal of the left and median lobes of the liver in 8-12 week-old mice (Mitchell et al., Nat Protoc 2008; 3:1167-70). The sham operation consisted of a midline laparotomy alone. All animal procedures were approved by NYU School of Medicine IACUC.
In selected experiments, NK1.1^+ cells were depleted using an mAb (PK136, 150 μg, eBiosciences, San Diego, Calif.). […]
Liver tissues were fixed in formaldehyde, embedded in paraffin, and stained for B220 (RA3-6B2; BD), BrdU (Bu20a; Sigma), CCL20 (polyclonal, Abcam), CD45 (30-F11; BD), CD68 (KP1; Abcam), Ki67 (16A8; Biolegend), MPO (Rabbit polyclonal; LS Biosciences, Seattle, Wash.), PCNA (PC10; Biolegend). […] Data was quantified by examining 10 high-power fields (HPFs) per slide. […]

macrophages = assay: Macrophages treated in vitro (M-CSF, M-CSF blockade, TNF-a blockade), CD14 and cytokine expression; type: cell-based, mouse
Method: Murine hepatic NPC were collected as previously (Connolly et al., 2009, The Journal of clinical investigation 119, 3213-3225). Briefly, the portal vein was cannulated and infused with 1% Collagenase IV (Sigma). The liver was then removed, minced, and filtered to obtain single cell suspensions. Hepatocytes were excluded with serial low speed (400 RPM) centrifugation followed by high speed (2000 RPM) centrifugation to isolate the NPC, which were then further enriched over a 40% Optiprep (Sigma) gradient. Human liver NPCs were isolated using a similar protocol as we have described ((Ibrahim et al., 2012, Gastroenterology 143, 1061-1072). Human PBMC were isolated by overlaying whole blood diluted 1:1 in PBS over an equal amount of Ficoll. The cells were then spun at 2100 RPM for 21 min at 20° C. and buffy coat harvested to obtain the PBMC as described ((Rehman et al., 2013, Journal of immunology 190, 4640-4649). Single-cell suspensions of murine splenocytes were isolated by manual disruption of whole spleen and RBC lysis. For HSC isolation, the liver was perfused with 1% Collagenase IV and HSCs were enriched over a 2-layer Nicodenz (Sigma) gradient. HSC were used for experiments on day 14 of culture. […] In vitro proliferation was measured using the XTT cell proliferation kit (Roche). PKC activity was measured using a PKC Kinase Activity Assay Kit (Abcam). […]

LPS-induced endotoxemia = LPS-induced endotoxemia / sepsis in mice; type: in vivo, mouse; conditions: WT mice co-administered LPS and M-CSF; FIGS. 7G, 7H
Method: C57BL/6 and CD45.1 mice were purchased from Jackson and bred in house. Dectin-1^−/− mice were a gift from Gordon Brown (University of Aberdeen). Mincle^−/− mice were obtained from the MMRRC. Age-matched 6-8 week old mice were used in all experiments. To induce hepatic fibrosis, female mice were treated with thrice weekly injections of TAA (250 mg/kg; Sigma) for 12 weeks as described (Connolly et al., 2009, The Journal of clinical investigation 119, 3213-3225). Alternatively, mice received bi-weekly injections of CCl4 (0.5 ml/kg; Sigma) for the same duration. To induce HCC, male mice were injected i.p. at 2 weeks of age with a single dose of DEN (15 mg/kg, Sigma) followed by bi-weekly injections of CCl4 (0.2 ml/kg) starting at 8 weeks of age ((Dapito et al., 2012, Cancer cell 21, 504-516). Mice were sacrificed 24 weeks later. To induce sepsis, male mice were injected i.p. with a single dose of LPS (15 mg/kg; Sigma). Rectal core body temperature was determined using a MicroTherma 2 temperature probe (Thermoworks). In selected experiments, MyD88 inhibitory peptide (1 mg/kg; Novus), an α-M-CSF neutralizing antibody (2 mg/kg; Clone 5A1, BioXCell), or an α-CD14 neutralizing antibody (4 mg/kg; Clone 4C1, BD Bioscience) was administered immediately preceding each TAA or LPS administration. At the time of sacrifice, blood and liver samples were harvested for analysis. […]

With `CN(C)CCCn1cc(C2=C(c3c[nH]c4ccccc34)C(=O)NC2=O)c2ccccc21` [PKC inhibition, GF109203X] the “M-CSF expression in cell culture supernatant” value (HSC) was “abrogated the higher M-CSF expression”.

B1: recombinant mIL-22: recombinant IL-22 (R&D) (protein, UniProt Q9JJY9 34-179, looked up)
Interleukin-22: LPVNTRCKLEVSNFQQPYIVNRTFMLAKEASLADNNTDVRLIGEKLFRGVSAKDQCYLMKQVLNFTLEDVLLPQSDRFQPYMQEVVPFLTKLSNQLSSCHISGDDQNIQKNVRRLKETVKKLGESGEIKAIGELDLLFMSLRNACV
For B1, the “rate of hepatic regeneration (BrdU incorporation)” value (liver regeneration) was “rescued” and the “rate of hepatic regeneration (BrdU incorporation)” value (liver regeneration; listed as recombinant IL-22) was “impressively restored; also recorded: rescues”.

B2: recombinant M-CSF: recombinant murine M-CSF (R&D) (protein, UniProt P07141 33-552, looked up)
Macrophage colony-stimulating …: KEVSEHCSHMIGNGHLKVLQQLIDSQMETSCQIAFEFVDQEQLDDPVCYLKKAFFLVQDIIDETMRFKDNTPNANATERLQELSNNLNSCFTKDYEEQNKACVRTFHETPLQLLEKIKNFFNETKNLLEKDWNIFTKNCNNSFAKCSSRDVVTKPDCNCLYPKATPSSDPASASPHQPPAPSMAPLAGLAWDDSQRTEGSSLLPSELPLRIEDPGSAKQRPPRSTCQTLESTEQPNHGDRLTEDSQPHPSAGGPVPGVEDILESSLGTNWVLEEASGEASEGFLTQEAKFSPSTPVGGSIQAETDRPRALSASPFPKSTEDQKPVDITDRPLTEVNPMRPIGQTQNNTPEKTDGTSTLREDHQEPGSPHIATPNPQRVSNSATPVAQLLLPKSHSWGIVLPLGELEGKRSTRDRRSPAELEGGSASEGAARPVARFNSIPLTDTGHVEQHEGSSDPQIPESVFHLLVPGIILVLLTVGGLLFYKWKWRSHRDPQTLDSSVGRPEDSSLTQDEDRQVELPV
With B2 the “MCP-1 and TNF-a expression” value (macrophages; macrophages in vitro, cell-culture supernatant, FIG. 7F) was “upregulated”, the CD14 expression (macrophages; macrophages treated with recombinant M-CSF, FIG. 7E) was “increased” and the “LPS-mediated sepsis (serum IL-6, core body temperature)” value (LPS-induced endotoxemia) was “exacerbated”.

Reference: patent US20160209425A1, “USE OF DECTIN-1 ACTIVATORS FOR TREATMENT OF LIVER DISORDERS” (NEW YORK UNIVERSITY, priority 2015, published 2016)
